T1: Mit1 C-terminal domain (1156–1417) (S. pombe, UniProt Q9P793 1156-1417)
T1 sequence (looked up): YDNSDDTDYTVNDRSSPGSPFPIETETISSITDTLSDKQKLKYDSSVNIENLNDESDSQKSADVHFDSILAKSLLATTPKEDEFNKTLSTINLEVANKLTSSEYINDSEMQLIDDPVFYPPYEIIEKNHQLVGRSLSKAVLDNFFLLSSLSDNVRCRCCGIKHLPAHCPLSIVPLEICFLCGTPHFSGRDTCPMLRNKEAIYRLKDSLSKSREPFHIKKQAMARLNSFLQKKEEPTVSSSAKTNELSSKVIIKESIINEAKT


Legend:
[1] = target: T1, Mit1 C-terminal domain (1156–1417); test: pull-down
[2] = target: the molecule itself

| binding result [1] | Binder | stoichiometry N [2] |
| --- | --- | --- |
| binds | Clr1 region between residues 357–500 (domain or fragment, S. pombe, UniProt O74808 357-500, looked up) PFLTPDNIASSILYSTASFSRSKPDRPRLNLSLELKLMQNELNKGQLKKQFKGDLRNLADWNNLSLVSSKFPSLPITNLRPDGSFLKHRRFNEEIAYNRQTLEKAIKQLDLSPDKVIQLREQNGVAVNGRVCYPTRNKHSEISA | – |
| – | Clr3 (aa31–687) (enzyme, S. pombe, UniProt P56523 31-687, looked up) TNNKPMSGSENTLNNESHEMSQILKKSGLCYDPRMRFHATLSEVDDHPEDPRRVLRVFEAIKKAGYVSNVPSPSDVFLRIPAREATLEELLQVHSQEMYDRVTNTEKMSHEDLANLEKISDSLYYNNESAFCARLACGSAIETCTAVVTGQVKNAFAVVRPPGHHAEPHKPGGFCLFNNVSVTARSMLQRFPDKIKRVLIVDWDIHHGNGTQMAFYDDPNVLYVSLHRYENGRFYPGTNYGCAENCGEGPGLGRTVNIPWSCAGMGDGDYIYAFQRVVMPVAYEFDPDLVIVSCGFDAAAGDHIGQFLLTPAAYAHMTQMLMGLADGKVFISLEGGYNLDSISTSALAVAQSLLGIPPGRLHTTYACPQAVATINHVTKIQSQYWRCMRPKHFDANPKDAHVDRLHDVIRTYQAKKLFEDWKITNMPILRDSVSNVFNNQVLCSSNFFQKDNLLVIVHESPRVLGNGTSETNVLNLNDSLLVDPVSLYVEWAMQQDWGLIDINIPEVVTDGENAPVDILSEVKELCLYVWDNYVELSISKNIFFIGGGKAVHGLVNLASSRNVSDRVKCMVNFLGTEPLVGLKTASEEDLPTWYYRHSLVFVSSSNECWKKAKRAKRRYGRLMQSEHTETSDMMEQHYRAVTQYLLHLLQKARPTSQ | 2 |

From article PMC4890606 (Molecular cell, 2016)
